The results in this text go back to paper PMC8316672 (Journal of Molecular Biology, 2021).

The target of this assay is SARS-CoV-2 RBD (residues 328–528), deglycosylated, His tag removed (crystallography) (SARS-CoV-2, UniProt P0DTC2). Kind of assay: crystal structure.

B1: Fab 15033 (Fab, V domains shown)
VH: EVQLVESGGGLVQPGGSLRLSCAASGFDLGGYSMHWVRQAPGKGLEWVAGIYASGGATAYADSVKGRFTISADTSKNTAYLQMNSLRAEDTAVYYCARSYYYGGFGMDYWGQGTLVTVSS
VL: DIQMTQSPSSLSASVGDRVTITCRASQSVSSAVAWYQQKPGKAPKLLIYSASDLYSGVPSRFSGSRSGTDFTLTISSLQPEDFATYYCQQSYRYPITFGQGTKVEIK
For B1, the binding result is reported as “binds”.

B2: Fab 15033-7 (Fab, V domains shown)
VH: EVQLVESGGGLVQPGGSLRLSCAASGFDLGGYSMHWVRQAPGKGLEWVAGIYASGGATAYADSVKGRFTISADTSKNTAYLQMNSLRAEDTAVYYCARSYYYGGFGMDYWGQGTLVTVSS
VL: DIQMTQSPSSLSASVGDRVTITCRASQSVSSAVAWYQQKPGKAPKLLIYSASDLYSGVPSRFSGSRSGTDFTLTISSLQPEDFATYYCQQSHTYPITFGQGTKVEIK
For B2, the binding result was “binds”.
